This is an account of results in patent US20230242624A1 (NEURIMMUNE, published 2023).

B1: NI-607.531_C8 (antibody, V domains shown)
VH: EVQLVESGGGVVQPGRSLRLSCTASGFTFSFYSVHWVRQAPGKGLEWVAVISYDGSTKYYADSVKGRFTISRDNSKNTLYLQMDSLRTEDTAVYYCASPPISPIPAAGTPLAYWGQGTLVTVSS
VL: not shown
B2: NI-607.649_B11 (antibody, V domains shown)
VH: QVQLVQSGAEVKKPGSSVKVSCKASGGTFSNYAISWVRQAPGQGLEWMGGIIPIFGTANYAQKFQGRVTITADESTSTAYMELSSLRSEDTAVYYCAGDRWYYDSSGYPTPDEYFQHWGQGTQVTVSS
VL: QSVLTQPPSVSGAPGQRVTISCTGSSSNIGAGYDVHWYQQLPGTAPKLLIYGNSNRPSGVPDRFSGSKSGTSASLAITGLQAEDEADYYCQSYDSSLSGVVFGGGTKLTVL
B3: NI-607.532_F9 (antibody, V domains shown)
VH: EVQLVESGGNLIQPGGSLRLSCAASGFTVSSNYMSWVRQAPGKGLEWVSVIYSGGSTYYADSVKGRFTISRDNSRNTLYLQMNSLRAEDTAVYFCARDRVVRGVRGNGMDVWGQGTTVTVSS
VL: AIRMTQSPSSLSASVGDRVTITCQASQDINIYLNWYQQRPGKAPKLLIYDASNLETGVPSRFSGSGSGTDFTFTISSLQPEDIATYYCHQYDNLPRTFGQGTKVDIK
B4: NI-607.274_B7 (antibody, V domains shown)
VH: QVQLVESGGGRVQPGRSLRLSCAASGFTFSTHGMHWVRQVPGKGLDWITGITYDGSDQFYADSVKGRFTISRDNSKNMLYLQMNSLRAEDTAVYFCAKDLEWLTNYLDHWGQGTLVTVSS
VL: DVVMTQSPGTLSVSPGERATLSCRASQNINYNLAWYQQKPGQAPRLLIFDASTRATGIPARFTGSGSGTEFTLTISSLQSEDFAVYYCQQSNAWLTFGGGTKVEIK
B5: NI-607.429_E4 (antibody, V domains shown)
VH: QVQLVESGGGLVQPGGSLRLSCAASGFTVSSNYMSWVRQAPGKGLEWVSVIYSGGSTFYADSVKGRFTISRDNSKNTLYLQMNSLRAEDTAVYYCARDLQESGMDVWGQGTTVTVSS
VL: DIQLTQSPSSVSASVGDRVTITCRASQGISSWLAWYQQKPGKAPKLLIYAASSLQSGVPSRFSGSGSGTDFTLTISSLQPEDFATYYCQQANSFPTFGQGTRLEIK
B6: NI-607.532_C11 (antibody, V domains shown)
VH: B5 VH with V12I, F58Y, Y79F, E101Y, S102Y
VL: DIQMTQSPSFLSASVGDRVTITCRASQGISSYLAWYQQKPGKAPKLLIYAASTLQSGVPSRFSGSGSGTEFTLTISSLQPEDFATYYCQQLDSYPPRDTFGQGTKVEIK
B7: NI-607.427_C5 (antibody, V domains shown)
VH: QVQLVQSGAEVKKPGASVKVSCKASGYTFTSYGISWVRQAPGQGLEWMGWISAYNGNTNYAQKLQGRVTMTTDTSTSTAYMELRSLRSDDTAVYYCARDNRAGWDQLDYWGQGTLVTVSS
VL: not shown
B8: NI-607.532_D3 (antibody, V domains shown)
VH: EVQLVQSGAEVKRPGASVKVSCKASGYHFTDYYIHWVRQAPGQGLEWMGWINPNSGGTNYAQKFQGRVTMTRDTSISTAYMELSRLRSDDTAVYYCARVYYYDSSSSADYWGQGTLVTVSS
VL: not shown
B9: NI-607.529_B9 (antibody, V domains shown)
VH: QVQLQESGPGLVKPSETLSLTCTVSGGSISSSSYYWGWIRQPPGKGLEWIGNIYYSGSTYYNPSLKSRVTISVDTSKNQFSLKLNSVTAADTAVYFCARLLWLRGSYYWGQGTLVTVSS
VL: SYELTQPHSVSESPGKTVTISCTGSSGSIASNYVQWYQQRPGSAPTTVIYEDNQRPSGVPDRFSGSIDSSSNSASLTISGLKTEDEADYYCQSYDSSNWVFGGGTKLTVL
B10: NI-607.429_E4 IgG4 (antibody, V domains shown)
VH: B5 VH
VL: B5 VL
B11: NI-607.532_D3 IgG4 (antibody, V domains shown)
VH: B8 VH
VL: not shown

Positions count from the first letter of the chain named. Values joined by “and” are separate entries in the source; they are usually repeats but may differ in a detail not shown here. Equal values may be shown once.

One assay concerns the target T1, SARS-CoV-2-S1 (RBD)-His protein (Trenzyme) (SARS-CoV-2, UniProt P0DTC2 319-541).
Assay: not given
For the molecule B1, the “IC50 (read off the curve)” value was around 0.03 µg/mL.
For B2, the “IC50 (read off the curve)” value is around 0.04 µg/mL.

The target in a further assay is T1, SARS-CoV-2-S1 (RBD)-His protein ….
Assay: not given
The source holds these as a separate data set.
Usually EC50 (read off the curve) stands for the midpoint of the concentration-response curve. A low value points to an effect from little substance. With B2, the “EC50 (read off the curve)” value was around 4 nM.

For the next assay, the target named is SARS-CoV-2 Spike Protein (S1+S2 ECD, His-Tag) (Sino 40589-V08B1) (SARS-CoV-2, UniProt P0DTC2 14-1213).
Assay: not given
As for B2, the “EC50 (read off the curve)” value is around 0.5 nM.

Another assay deals with T1, SARS-CoV-2-S1 (RBD)-His protein ….
Assay: not given
The source holds these as a separate data set.
By EC50 is commonly meant the midpoint of the concentration-response curve. The molecule B2 returned an EC50 of 0.036 nM.

The target in another assay is SARS-CoV-2 Spike (S) protein on vesicular stomatitis virus (VSV) pseudoviruses (SARS-CoV-2, UniProt P0DTC2 14-1273). The experiment in a line: cell-based or functional assay.
Turning to B1, the “IC50, pseudovirus entry assay (luciferase, HEK 293T-ACE2 cells)” value (“IC50, pseudovirus entry assay” for short) is 86.4 ng/mL and 0.572 nM.
B3: the “IC50, pseudovirus entry assay” value worked out at 0.364 µg/mL.
Take B2: the “IC50, pseudovirus entry assay” value was 232 ng/mL and 1.53 nM.
For B4, the “IC50, pseudovirus entry assay” value was above 100 µg/mL.
Same read-out and setting: with B5 the figure was 0.035 µg/mL; with B6, 0.0872 µg/mL; with B7, above 100 µg/mL.
In the case of B8, the “IC50, pseudovirus entry assay” value stood at 2.1 µg/mL.
On the same count and under the same terms, to B9 belongs 1.9 µg/mL.

A further assay deals with T2, BSA (Sigma-Aldrich) (bovine, UniProt P02769 25-607).
T2 construct: also called bovine serum albumin; BSA control
The experiment in a line: direct ELISA on coated BSA.
For the molecule B4, the binding result is given as “no binding (tested: 400 nM)”.
Regarding B5, the binding result was “no binding (tested: 400 nM)”.
Take B6: the binding result is “no binding (tested: 400 nM)”.
Take B7: the binding result is on record as “no binding (tested: 400 nM)”.
For B8, the binding result was “no binding (tested: 400 nM)”.
On to B9, for which the binding result is listed as “no binding (tested: 400 nM)”.

A further assay has as its target T1, SARS-CoV-2-S1 (RBD)-His protein …. The experiment in a line: direct ELISA on coated RBD-His. For orientation: ELISA stands for enzyme-linked immunosorbent assay.
In turn, B1 had an EC50 of around 0.017 nM.
The same measure, in the same setting: to B2 belongs around 0.021 nM.

The target is the same in a further assay. The experiment in a line: direct ELISA on coated RBD-His. The source holds these as a separate data set.
B1 yielded an EC50 of 0.011 nM.
For the molecule B3, a half-maximal response (EC50) required 0.0025 nM.
Regarding B2, the EC50 came out at 0.027 nM.
Molecule B4 gave an EC50 of 0.021 nM.
The same measure, in the same setting: with B5 the figure was 0.0086 nM; with B6, 0.013 nM.
Regarding B7, it took 0.014 nM to reach a half-maximal effect (EC50).
On to B8, for which the EC50 is 0.0049 nM.
B9 returned an EC50 of 0.034 nM.

The target is the same in the next assay. The experiment in a line: competition ELISA, RBD binding to coated ACE2.
The IC50 is the midpoint of a concentration-inhibition curve. A higher IC50 goes with weaker potency in that assay. Take B3: the IC50 was ~0.668 µg/mL and ~4.4 nM.
Take B5: the IC50 was ~0.345 µg/mL and ~2.3 nM.
On the same count and under the same terms, with B6 the figure was ~1.12 µg/mL and ~7.44 nM.
As for B10, the IC50 is ~0.699 µg/mL and ~4.65 nM.
Same read-out and setting: to B7 belongs ~2.15 µg/mL and ~14.3 nM; to B8, ~0.457 µg/mL and ~3 nM.
As for B11, the IC50 was ~0.457 µg/mL and ~3 nM.

For another assay the target is unchanged. The experiment in a line: iQue flow cytometry, antigen-coated beads.
B1 returned an EC50 of 1.2 nM.
B3 had an EC50 of 3.3 nM.
Same read-out and setting: with B2 the figure was 1.4 nM; with B4, 0.67 nM.
The same measure, in the same setting: with B5 the figure was 1.9 nM; with B6, 2.4 nM; with B7, 3.2 nM.
On the same count and under the same terms, to B8 belongs 1 nM; to B9, 1 nM.

Another assay has as its target recombinant SARS-CoV Spike protein (RBD, His tag) (SARS-CoV, UniProt P59594 306-527). The experiment in a line: iQue flow cytometry, antigen-coated beads.
On to B1, for which the EC50 was determined as 1000 nM.
As for B3, the EC50 stood at 1000 nM.
On the same count and under the same terms, to B2 belongs 1.7 nM; to B7, 3 nM; to B8, 1000 nM.
Take B9: the EC50 came to 20 nM.

The next assay deals with T3, MERS-CoV Spike protein fragment (RBD, aa 367-606, His tag) (MERS-CoV, UniProt K9N5Q8 367-606).
T3 sequence: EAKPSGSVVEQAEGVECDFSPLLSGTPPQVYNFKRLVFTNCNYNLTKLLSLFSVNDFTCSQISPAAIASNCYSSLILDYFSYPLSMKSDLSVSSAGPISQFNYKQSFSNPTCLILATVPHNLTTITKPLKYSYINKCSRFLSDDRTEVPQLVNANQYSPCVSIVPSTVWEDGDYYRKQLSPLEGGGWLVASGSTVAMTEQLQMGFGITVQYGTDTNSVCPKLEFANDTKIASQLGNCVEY
The experiment in a line: iQue flow cytometry, antigen-coated beads. On the technique in general: In flow cytometry, cells or beads pass a laser one at a time.
The molecule B1 had an EC50 of 1000 nM.
B3: a half-maximal response (EC50) required 1000 nM.
Still for that read-out and setting: to B2 belongs 1000 nM; to B4, 900 nM; to B5, 200 nM.
Take B6: the EC50 amounted to 1000 nM.
Still for that read-out and setting: to B7 belongs 600 nM; to B8, 1000 nM.
On the same count and under the same terms, to B9 belongs 300 nM.

The target in a further assay is T1, SARS-CoV-2-S1 (RBD)-His protein …. The experiment in a line: direct ELISA on coated RBD-His (FIG. 1C); IgG1.
Molecule B2 returned an EC50 of around 0.013 nM.

The next assay shares this target. The experiment in a line: competition ELISA, RBD binding to coated ACE2. This is another data set of the same source.
Molecule B1 came in with an IC50 of 0.153 nM.
Still for that read-out and setting: to B3 belongs 0.775 nM; to B2, 0.08 nM; to B4, 7.8 nM.
In turn, B5 came in with an IC50 of 0.275 nM.
For B6, the IC50 turned out to be 0.826 nM.
B7 registered an IC50 of 2.88 nM.
B8 came in with an IC50 of 0.917 nM.
On the same count and under the same terms, with B9 the figure was 0.116 nM.

A further assay has the same target. The experiment in a line: competition ELISA, RBD binding to coated ACE2; IgG1.
On to B1, for which the IC50 is around 0.132 µg/mL.
The molecule B2 displayed an IC50 of around 0.052 µg/mL.
